Measurements reported in US7550429B2, “Glycoproteins having lipid mobilising properties and therapeutic applications thereof” (Aston University, priority 1998, dated 2009).

Legend:
[1] = test system: murine epididymal adipocytes; experiment: Lipolytic assay: glycerol release from isolated adipocytes; format: cell-based, mouse; conditions: for Lipid mobilizing activity, glycerol released: 5 μg human or 10 μg mouse LMF, incubated overnight at 4° C. with or without pAb 10 μg, mean±SEM, three determinations; for Specific activity: purified product after final stage HPLC Resource-iso; for Stimulation of glycerol release (lipolysis): different doses, freshly isolated murine epididymal adipocytes, FIG. 9
Procedure: Single cell suspensions of white adipocytes were prepared from finely minced epididymal fat pads of male BKW mice using collagenase digestion, substantially as described by S. A. Beck et al. (see above-mentioned reference 14). Samples to be assayed were incubated with 10^5-2×10^5 adipocytes (determined by means of a haemocytometer) for 2 h at 37° C. in 1 ml of Krebs-Ringer bicarbonate buffer, pH 7.2. The concentration of glycerol released was determined enzymatically by the method of Wieland as referred to above (see also GB2217330A). Control samples containing adipocytes alone were analyzed to determine the spontaneous glycerol release. Lipid mobilizing activity was expressed as μmol glycerol released/10^5 adipocytes/2 h.

[2] = test system: murine adipocyte plasma membrane adenylate cyclase; experiment: Adenylate cyclase assay with adipocyte plasma membranes; format: biochemical, mouse; conditions: GTP-dependent stimulation
Procedure: In a typical procedure white adipocytes were isolated from mouse epididymal fat pads as referred to above except that the cells were washed in 250 mM sucrose, 2 mM ethyleneglycol bis(β-aminoethylether)-N,N,N′,N′ (EGTA), 10 mM Tris-HCl (pH 7.4). Adipocytes were resuspended in 20 ml of the above buffer and homogenised by aspirating through a Swinny filter at least 10 times. The cell homogenate was then centrifuged at 300 g for 5 min, the fat cake removed from the surface and the remaining pellet and infranatant transferred to clean tubes. These were centrifuged at 30,000 g for 1 h at 4° C. and the membrane pellet formed was resuspended in the sucrose buffer (200 to 400 μl). Plasma membranes were separated from other organelle membranes on a self-forming gradient of Percoll™ colloidial silica particles. […]
An adenylate cyclase assay used was based on that developed by Salomon et al. (reference 16). […] Background binding was determined by running samples without [α-^32P] […]
Samples containing labelled nucleotides were diluted to 1 ml with water and loaded onto Dowex™ 50W8-400 ion-exchange columns primed with 10 ml of water. […] The radioactivity was determined using a Tri-carb™ 2000A scintillation analyser.

[3] = test system: ex-breeder male NMRI mice; experiment: In vivo fat depletion, iv LMF in ex-breeder male NMRI mice; set-up: species or system mouse
Procedure: (§1) Non-esterified fatty acids (NEFA) were determined using a Wako-ASC-ACOD kit (Wako Chemical GmbH, Neuss, Germany). Triglycerides were determined using a Triglyceride kit (Sigma Chemical Co., Poole, United Kingdom) and 3-hydroxybutyrate by a quantitative enzymatic determination kit (Sigma). Glucose was measured using a glucose analyser (Beckman, Irvine, Calif.) and glycerol was determined enzymatically using the method of Wieland as described in “Methods of Enzymatic Analysis” (Ed. Bergmeyer, H. U.) Vol. 3, pp 1404-1409, published by Academic Press, London (1974) (reference 13).
FIG. 10 is a diagram showing change in body weight of ex-breeder male NMRI mice (30-40 g) produced by intravenous (iv) administration of LMF (8 μg) isolated from human urine as described in Example 2 (o) and of control mice administered PBS by iv injection (x).
In order to determine if the purified LMF isolated from human urine as in Example 2 was capable of fat depletion in vivo a sample of this LMF material ([…]) was injected into male ex breeder NMRI mice over a 72 h period. The LMF was injected at times 0, 17, 24, 41, 48, 62 and 72 hours and control mice were similarly injected with phosphate-buffered saline (PBS) at the same time points. The animals were killed at 89 h and the body composition and serum metabolite levels were determined. […] Changes in the body composition and serum metabolic levels are summarised in Table 5 and it will be seen that total body weight decreased by 3.6 g during the overall 89 h period of the experiment without change in food and water intake. […] Despite the fat mobilisation there were significant reductions in the serum concentrations of non-esterified fatty acids (NEFA), glycerol and glucose in mice receiving LMF.

ob/ob mice = experiment: In vivo effect of iv LMF in obese ob/ob mice; set-up: species or system mouse
Procedure: as §1
FIG. 11 is a diagram similar to FIG. 10 showing change in body weight of ob/ob mice produced by iv administration of LMF (35 μg) (o) isolated from human urine as described in Example 2 and of control mice (x) administered PBS by iv injection. LMF was injected at times 0, 16, 24, 40, 48, 64, 72, 90, 96, 113, 120, 137 and 144 h; PBS was injected at the same time points. The animals were killed 160 h after the first injection. Results are expressed as mean±SEM for 5 animals per group.
As shown in FIG. 11 and by the data in Table 6, intravenous administration to obese ob/ob mice of LMF (35 μg) isolated from human urine produced a similar result. There was a decrease in total body weight which became significant within 24 h of the first injection and remained below that of the control group over the 160 h of the experiment.

[4] = LMF 8 μg iv over 72 h, killed at 89 h
[5] = LMF 35 μg iv, 160 h after first injection

B1: Mouse LMF: 43 kDa glycoprotein lipid mobilising factor purified from murine adenocarcinoma MAC16 (Example 1) (protein, UniProt Q64726 18-307, looked up)
Zinc-alpha-2-glycoprotein: QETGSYYLTFLYTGLSRPSKGFPRFQATAFLNDQAFFHYNSNSGKAEPVGPWSQVEGMEDWEKESQLQRAREEIFLVTLKDIMDYYKDTTGSHTFQGMFGCEITNNRSSGAVWRYAYDGEDFIEFNKEIPAWIPLDPAAANTKLKWEAEKVYVQRAKAYLEEECPEMLKRYLNYSRSHLDRIDPPTVTITSRVIPGGNRIFKCLAYGFYPQRISLHWNKANKKLAFEPERGVFPNGNGTYLSWAEVEVSPQDIDPFFCLIDHRGFSQSLSVQWDRTRKVKDENNVVAQPQ
Lipid mobilizing activity, glycerol released [1]: 0.0977 ± 0.02 μmole glycerol/10^5 adipocytes/2 h
Specific activity [1]: 50 μmol/10^5 adipocytes/mg protein

B2: Human LMF: 43 kDa glycoprotein lipid mobilising factor purified from urine of cachectic cancer patients (Example 2); Zn-α2-glycoprotein type (protein, UniProt P25311 21-298, looked up)
Zinc-alpha-2-glycoprotein: QENQDGRYSLTYIYTGLSKHVEDVPAFQALGSLNDLQFFRYNSKDRKSQPMGLWRQVEGMEDWKQDSQLQKAREDIFMETLKDIVEYYNDSNGSHVLQGRFGCEIENNRSSGAFWKYYYDGKDYIEFNKEIPAWVPFDPAAQITKQKWEAEPVYVQRAKAYLEEECPATLRKYLKYSKNILDRQDPPSVVVTSHQAPGEKKKLKCLAYDFYPGKIDVHWTRAGEVQEPELRGDVLHNGNGTYQSWVVVAVPPQDTAPYSCHVQHSSLAQPLVVPWEAS
Lipid mobilizing activity, glycerol released [1]: 0.0062 ± 0.0002 μmole glycerol/10^5 adipocytes/2 h
Stimulation of glycerol release (lipolysis) [1]: stimulated glycerol release with a comparable dose-response profile
Specific activity [1]: 164.3 μmol/10^5 adipocytes/mg protein
Effect of α-chymotrypsin digestion on in vitro biological activity ([1]; α-chymotrypsin digestion): chymotrypsin destroyed the in vitro biological activity
GTP concentration at maximal stimulation of adenylate cyclase [2]: 0.1 µM
Food intake ([3]; LMF 8 μg iv over 72 h): 8.0 ± 0.2 g/day
Water intake ([3]; LMF 8 μg iv over 72 h): 4.4 ± 0.4 mL/day
Body composition: Fat [3, 4]: 3.4 ± 0.4 g
Body composition: Non Fat [3, 4]: 9.6 ± 0.9 g
Body composition: Water [3, 4]: 18.3 ± 0.8 g
Serum Glucose [3, 4]: 186 ± 0.08 mg/100 ml
Serum Glycerol [3, 4]: 6.73 ± 0.45 mM
Serum NEFA [3, 4]: 0.95 ± 0.03 mEq/l
Final body weight ([3]; LMF 8 μg iv, 7 injections over 72 h, killed at 89 h, mean±SEM, 5 mice): 31.6 ± 2.2 g
Time until body weight significantly lower than PBS treated controls ([3]; LMF iv, FIG. 10): ≤ 41 h
Reduction in body fat content ([3]; body composition analysis at 89 h): 42%
Decrease in total body weight ([3]; overall 89 h period, no change in food and water intake): 3.6 g
Final body weight (ob/ob mice; LMF 35 μg iv, 13 injections over 144 h, 160 h after first injection, mean±SEM, 5 mice): 69.5 ± 4.3 g
Body composition: Fat (ob/ob mice; [5]): 30.6 ± 0.7%
Body composition: Non Fat (ob/ob mice; [5]): 17.4 ± 1.0%
Body composition: Water (ob/ob mice; [5]): 53.7 ± 1.1%
Glucose (ob/ob mice; [5]): 260 ± 12 mg/100 ml
Oxygen uptake (ob/ob mice; [5]): 0.55 ± 0.07 μl/mgBAT/h
Serum 3-Hydroxybutyrate (ob/ob mice; [5]): 0.44 ± 0.01 mM
Serum Glycerol (ob/ob mice; [5]): 5.31 ± 0.45 mM
Serum NEFA (ob/ob mice; [5]): 1.45 ± 0.45 mEq/l
Carcass fat (ob/ob mice; LMF 35 μg iv, body composition analysis at 160 h): 21.09 ± 0.99 g
Time until decrease in total body weight became significant (ob/ob mice; after the first injection, FIG. 11): ≤ 24 h
Initial body weight (ob/ob mice; baseline before first injection): 67.9 ± 2.9 g

B3: Zn-α2-glycoprotein (protein, listed as Homo sapiens)
chain: QENQDGRYSLTYIYTGLSKHVEDVPAFQALGSLNDLQFFRYNSKDRKSQPMGLWRQVEGMEDWKEDSQLQKAREDMETLKDIVEYYNDSNGSHVLQGRFGCEIENNRSSGAFWKYYYDGKDYIEFNKEIPAWVPFDPAAQITKQKWEAEPVYVQRAKAYLEEECPATLRKYLKYSKNILDRQDPPSVVVTSHQAPGEKKKLKCLAYDFYPGKIDVHWTRAGQVQEPELRGDVLHNGNGTYQSWVVVAVPPQDTAPYSCHVQHSSLAQPLVVPWEAS
notes: Zn-α2-glycoprotein purified about 670-fold from fresh human plasma by the method of Ohkubo et al
Stimulation of glycerol release (lipolysis) [1]: stimulated glycerol release with a comparable dose-response profile
GTP concentration at maximal stimulation of adenylate cyclase [2]: 0.1 µM
